# Literature values, collected in paper PMC2517140.
# Target: gp41 trimeric inner core (Human immunodeficiency virus 1) (UniProt O70902)
substance,measurement,value
gp41 outer-layer peptide (from UniProt O70902),Kd,1 nM
